Holding throughout (assay): purified protein
Holding throughout (conditions): fatty acid varied 0-500 uM, 5 mM ATP, 0.5 mM CoA, 10 mM MgCl2, 1 mM NADH, pH 7.5, 30 C

Substrate in data set [1]: CCCCCCCC(=O)O
Substrate in data set [2]: CC(C)CCCCCCC(=O)O
Format: biochemical, Solanum lycopersicum.

Substrate in data set [3]: CCCCCC(=O)O
Format: biochemical, Solanum lycopersicum.

Substrate in data set [4]: CCCCCCC/C=C/C(=O)O
Format: biochemical, Solanum lycopersicum.

Substrate in data set [5]: CCCCCCCCCC(=O)O
Format: biochemical, Solanum lycopersicum.

Substrate in data set [6]: CCCCCCCCCCCC(=O)O
In kind it is biochemical, Solanum lycopersicum.

These results are taken from paper PMC7386920, “Evolution of a plant gene cluster in Solanaceae and emergence of metabolic diversity” (eLife, 2020).

As usually defined, the Km is the substrate concentration at which the rate is half of its maximum. For orientation: kcat means the number of substrate molecules converted per active site and unit of time at saturation.

B1: Sl-AACS1 (Solanum lycopersicum) (protein)
chain: MNKFFKTSNIALRFFNGSVQLPAPTHRVRQLCQLAGSIESTDESRKLLEGVVTSPANYVPLTPISYLERAADVFGDRTSVVFGSSVKYTWEETHSRCLKLASALIQLGISRGDVVATLAPNVPAMQELHFAVPMAGAVLCTLNTRLDSSMVAYLLKHSETKMIFVDQQFLQIAQQALSLLSKDKTIKPPILILIPESNDSSPPVSNIHEYENLLSSGSSNFTIRWPKSEFDPISINYTSGTTSSPKGVVYNHRGAYLNSISAFLCHGMALMPTYLWTLPMFHCNGWCMNWGVAALGGTNVCLRHVSAKDIFESISVNKVTHMSAAPIVLSMMANASPNDRKPLLHKVEIMTGGSPPPPQILSKMEQLGFGVSHGYGLTETYSGATTCLWKPEWDSLPLEERAALKSRQGVKVLCIERVDVRDPETMENVPADGKSIGEIVCRGNTVMSGYLKDVKSTEEAFKGGWFHTGDVAVKHPDGYIEIKDRLKDIIISGGENISTLEVEGVLHSHPAVVEAAVVARPDDHWGQTPCAFVKLKEGSEEITSDEIIKYCRDHLPHYMVPRAVVFQDLPTTSTGKVQKFILREKAKALASLFNTDRKV
notes: full-length ORF in pET28b, His-tagged (tag removal not mentioned), E. coli BL21 Rosetta, Ni-NTA purified
As for B1, the Km in “purified protein [1]” turned out to be 145.9 ± 10.4 µM; in the data set “purified protein [2]” it was 82.1 ± 10.3 µM; in “purified protein [3]”, 214.8 ± 40 µM; in “purified protein [4]”, 36.4 ± 4.5 µM; in the data set “purified protein [5]” it was 71.8 ± 9.6 µM; in the data set “purified protein [6]” it was 68.1 ± 15.8 µM. For the same protein, the catalytic constant (kcat) in the data set “purified protein [1]” worked out at 0.22 ± 0.0067 s⁻¹; in “purified protein [2]” it was 0.227 ± 0.01 s⁻¹; in the data set “purified protein [3]” it was 0.23 ± 0.02 s⁻¹; in the data set “purified protein [4]” it was 0.0983 ± 0.0033 s⁻¹; in the data set “purified protein [5]”, 0.0933 ± 0.0033 s⁻¹; in the data set “purified protein [6]” it was 0.07 ± 0.005 s⁻¹.
